In patent US20260209386A1 (MYTHIC THERAPEUTICS, published 2026):

T1: Human PTK7 (human, UniProt Q13308 31-1070)
T1 sequence: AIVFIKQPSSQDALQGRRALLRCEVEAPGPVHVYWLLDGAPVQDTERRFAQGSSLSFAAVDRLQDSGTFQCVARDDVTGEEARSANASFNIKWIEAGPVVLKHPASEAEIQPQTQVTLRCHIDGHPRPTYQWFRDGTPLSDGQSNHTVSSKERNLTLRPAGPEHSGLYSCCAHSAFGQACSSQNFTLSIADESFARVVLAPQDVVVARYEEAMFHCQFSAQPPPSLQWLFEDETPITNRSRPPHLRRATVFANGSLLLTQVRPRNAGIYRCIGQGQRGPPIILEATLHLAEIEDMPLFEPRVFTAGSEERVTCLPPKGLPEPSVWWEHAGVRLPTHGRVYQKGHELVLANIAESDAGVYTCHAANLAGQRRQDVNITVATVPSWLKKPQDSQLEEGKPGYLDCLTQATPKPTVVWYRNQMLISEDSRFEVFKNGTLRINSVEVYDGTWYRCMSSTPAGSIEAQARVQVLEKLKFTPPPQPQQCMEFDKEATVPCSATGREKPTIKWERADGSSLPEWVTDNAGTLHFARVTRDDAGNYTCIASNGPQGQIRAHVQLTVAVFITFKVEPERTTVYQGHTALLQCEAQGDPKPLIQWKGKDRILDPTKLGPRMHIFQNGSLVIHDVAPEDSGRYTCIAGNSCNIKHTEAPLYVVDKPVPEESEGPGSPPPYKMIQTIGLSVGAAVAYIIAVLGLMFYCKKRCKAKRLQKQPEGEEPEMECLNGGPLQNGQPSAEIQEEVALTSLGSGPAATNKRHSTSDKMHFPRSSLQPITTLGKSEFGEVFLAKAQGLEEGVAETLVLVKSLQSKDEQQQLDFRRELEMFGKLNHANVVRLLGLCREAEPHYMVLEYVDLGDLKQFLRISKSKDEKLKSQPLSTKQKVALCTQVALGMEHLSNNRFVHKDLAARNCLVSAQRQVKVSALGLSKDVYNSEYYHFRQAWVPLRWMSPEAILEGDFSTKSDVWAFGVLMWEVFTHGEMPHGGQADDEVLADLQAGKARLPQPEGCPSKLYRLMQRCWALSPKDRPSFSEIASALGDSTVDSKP

T2: Human PTK7 Protein, His Tag (Acro Biosystems) (human, UniProt Q13308 31-704)
T2 construct: Bought His-tagged protein; also called CCK4; not shown: His tag
T2 sequence: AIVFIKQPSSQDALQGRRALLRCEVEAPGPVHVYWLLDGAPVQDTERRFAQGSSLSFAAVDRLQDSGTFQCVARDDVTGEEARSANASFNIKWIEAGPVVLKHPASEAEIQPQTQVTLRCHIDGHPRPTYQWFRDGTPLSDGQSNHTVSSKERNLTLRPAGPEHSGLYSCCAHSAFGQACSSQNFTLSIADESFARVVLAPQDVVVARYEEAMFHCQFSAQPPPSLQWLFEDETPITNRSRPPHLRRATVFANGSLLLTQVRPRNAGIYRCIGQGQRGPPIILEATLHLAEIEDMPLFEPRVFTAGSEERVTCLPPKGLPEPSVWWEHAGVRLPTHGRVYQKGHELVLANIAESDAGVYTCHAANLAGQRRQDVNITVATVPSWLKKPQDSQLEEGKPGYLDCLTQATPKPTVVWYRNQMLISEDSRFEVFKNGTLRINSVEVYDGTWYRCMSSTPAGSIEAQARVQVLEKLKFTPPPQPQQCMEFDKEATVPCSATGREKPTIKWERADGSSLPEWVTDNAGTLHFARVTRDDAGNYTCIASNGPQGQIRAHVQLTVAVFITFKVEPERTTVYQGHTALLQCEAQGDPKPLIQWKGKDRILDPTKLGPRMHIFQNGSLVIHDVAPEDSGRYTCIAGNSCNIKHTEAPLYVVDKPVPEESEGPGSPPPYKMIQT


target: T1, Human PTK7; assay: cell-based or functional assay

| Internalization, FOW @ 25 nM (fold over the wildtype, parental antibody) | Binder |
| --- | --- |
| 1.68 fold over parental antibody | MYT11337 (antibody, V domains shown) VH: EVQLVESGGGLVQPGGSLRLSCTASGIDLSRYSMGWVRQAPGKGLEWVGIISYGGSTYYASWAKGRFTISRDTSKNTVYLQMNSLRAEDTAVYFCARVGYPGYSGYGYAFDAFDPWGQGTLVTVSS VL: EIVMTQSPSTLSASVGDRVIITCQSSKSVYNDNWLSWYQQKPGKAPKLLIYGASTLASGVPSRFSGSGSGAEFTLTISSLQPDDFATYYCAGGYSSSSANGFGQGTKLTVL |
| 1.16 fold over parental antibody | MYT11346 (antibody, V domains shown) VH: EVQLVESGGGLVQPGGSLRLSCTASGIDLSNYHVIWVRQAPGKGLEWVGIIYTYDTTYYANWAKGRFTISRDTSKNTVYLQMNSLRAEDTAVYFCARSFSDISDLIKLWGQGTLVTVSS VL: EIVMTQSPSTLSASVGDRVIITCQASQSLYNNKDLAWYQQKPGKAPKLLIYEASKLASGVPSRFSGSGSGAEFTLTISSLQPDDFATYYCLGEFSCGSGDCLAFGQGTKLTVL |
| 1.19 fold over parental antibody | MYT11418 (antibody, V domains shown) VH: EVQLVESGGGLVQPGGSLRLSCTASGIDLSNYAVIWVRQAPGKGLEWVGIIYTYDTTYYANWAKGRFTISRDTSKNTVYLQMNSLRAEDTAVYFCARSFSDISDLIKLWGQGTLVTVSS VL: EIVMTQSPSTLSASVGDRVIITCQASQSLYNNKDLAWYQQKPGKAPKLLIYAASKLASGVPSRFSGSGSGAEFTLTISSLQPDDFATYYCLGEFSCGSGDCLAFGQGTKLTVL |

target: T2, Human PTK7 Protein, His Tag (Acro …); assay: BLI (Octet), antibody on anti-human Fc sensor, 50 nM PTK7; grade 2 = substantially similar binding relative to parent

| Binder | binding result |
| --- | --- |
| MYT11027 (antibody, V domains shown, MYT9361 HC variant) VH: EVQLVESGGGLVQPGGSLRLSCTASHLSLSSYWMSWVRQAPGKGLEWVGVISAGGNTYYANWAKGRFTISRDTSKNTVYLQMNSLRAEDTAVYFCARGDDGYTNAAYVSNLWGQGTLVTVSS VL: EIVMTQSPSTLSASVGDRVIITCQASQSISSWLSWYQQKPGKAPKLLIYKASTLASGVPSRFSGSGSGAEFTLTISSLQPDDFATYYCQSYFDSTTIAFGQGTKLTVL | binds |
| MYT11029 (antibody, V domains shown, MYT9361 HC variant) VH: EVQLVESGGGLVQPGGSLRLSCTASGLHLSSYWMSWVRQAPGKGLEWVGVISAGGNTYYANWAKGRFTISRDTSKNTVYLQMNSLRAEDTAVYFCARGDDGYTNAAYVSNLWGQGTLVTVSS VL: EIVMTQSPSTLSASVGDRVIITCQASQSISSWLSWYQQKPGKAPKLLIYKASTLASGVPSRFSGSGSGAEFTLTISSLQPDDFATYYCQSYFDSTTIAFGQGTKLTVL | binds |
| MYT11034 (antibody, V domains shown, MYT9361 HC variant) VH: EVQLVESGGGLVQPGGSLRLSCTASGLSLSSYHMSWVRQAPGKGLEWVGVISAGGNTYYANWAKGRFTISRDTSKNTVYLQMNSLRAEDTAVYFCARGDDGYTNAAYVSNLWGQGTLVTVSS VL: EIVMTQSPSTLSASVGDRVIITCQASQSISSWLSWYQQKPGKAPKLLIYKASTLASGVPSRFSGSGSGAEFTLTISSLQPDDFATYYCQSYFDSTTIAFGQGTKLTVL | binds |
| MYT11032 (antibody, V domains shown, MYT9361 HC variant) VH: EVQLVESGGGLVQPGGSLRLSCTASGLSLSHYWMSWVRQAPGKGLEWVGVISAGGNTYYANWAKGRFTISRDTSKNTVYLQMNSLRAEDTAVYFCARGDDGYTNAAYVSNLWGQGTLVTVSS VL: EIVMTQSPSTLSASVGDRVIITCQASQSISSWLSWYQQKPGKAPKLLIYKASTLASGVPSRFSGSGSGAEFTLTISSLQPDDFATYYCQSYFDSTTIAFGQGTKLTVL | binds |

The next lines start with the values.

| binding result | Binder |
| --- | --- |
| binds | MYT11037 (antibody, V domains shown, MYT9361 HC variant) VH: EVQLVESGGGLVQPGGSLRLSCTASGLSLSSYWMSWVRQAPGKGLEWVGHISAGGNTYYANWAKGRFTISRDTSKNTVYLQMNSLRAEDTAVYFCARGDDGYTNAAYVSNLWGQGTLVTVSS VL: EIVMTQSPSTLSASVGDRVIITCQASQSISSWLSWYQQKPGKAPKLLIYKASTLASGVPSRFSGSGSGAEFTLTISSLQPDDFATYYCQSYFDSTTIAFGQGTKLTVL |
| binds | MYT11038 (antibody, V domains shown, MYT9361 HC variant) VH: EVQLVESGGGLVQPGGSLRLSCTASGLSLSSYWMSWVRQAPGKGLEWVGVHSAGGNTYYANWAKGRFTISRDTSKNTVYLQMNSLRAEDTAVYFCARGDDGYTNAAYVSNLWGQGTLVTVSS VL: EIVMTQSPSTLSASVGDRVIITCQASQSISSWLSWYQQKPGKAPKLLIYKASTLASGVPSRFSGSGSGAEFTLTISSLQPDDFATYYCQSYFDSTTIAFGQGTKLTVL |
| binds | MYT11035 (antibody, V domains shown, MYT9361 HC variant) VH: EVQLVESGGGLVQPGGSLRLSCTASGLSLSSYWHSWVRQAPGKGLEWVGVISAGGNTYYANWAKGRFTISRDTSKNTVYLQMNSLRAEDTAVYFCARGDDGYTNAAYVSNLWGQGTLVTVSS VL: EIVMTQSPSTLSASVGDRVIITCQASQSISSWLSWYQQKPGKAPKLLIYKASTLASGVPSRFSGSGSGAEFTLTISSLQPDDFATYYCQSYFDSTTIAFGQGTKLTVL |
| binds | MYT11028 (antibody, V domains shown, MYT9361 HC variant) VH: EVQLVESGGGLVQPGGSLRLSCTASGHSLSSYWMSWVRQAPGKGLEWVGVISAGGNTYYANWAKGRFTISRDTSKNTVYLQMNSLRAEDTAVYFCARGDDGYTNAAYVSNLWGQGTLVTVSS VL: EIVMTQSPSTLSASVGDRVIITCQASQSISSWLSWYQQKPGKAPKLLIYKASTLASGVPSRFSGSGSGAEFTLTISSLQPDDFATYYCQSYFDSTTIAFGQGTKLTVL |
| binds | MYT11030 (antibody, V domains shown, MYT9361 HC variant) VH: EVQLVESGGGLVQPGGSLRLSCTASGLSHSSYWMSWVRQAPGKGLEWVGVISAGGNTYYANWAKGRFTISRDTSKNTVYLQMNSLRAEDTAVYFCARGDDGYTNAAYVSNLWGQGTLVTVSS VL: EIVMTQSPSTLSASVGDRVIITCQASQSISSWLSWYQQKPGKAPKLLIYKASTLASGVPSRFSGSGSGAEFTLTISSLQPDDFATYYCQSYFDSTTIAFGQGTKLTVL |
| binds | MYT11031 (antibody, V domains shown, MYT9361 HC variant) VH: EVQLVESGGGLVQPGGSLRLSCTASGLSLHSYWMSWVRQAPGKGLEWVGVISAGGNTYYANWAKGRFTISRDTSKNTVYLQMNSLRAEDTAVYFCARGDDGYTNAAYVSNLWGQGTLVTVSS VL: EIVMTQSPSTLSASVGDRVIITCQASQSISSWLSWYQQKPGKAPKLLIYKASTLASGVPSRFSGSGSGAEFTLTISSLQPDDFATYYCQSYFDSTTIAFGQGTKLTVL |
| binds | MYT11036 (antibody, V domains shown, MYT9361 HC variant) VH: EVQLVESGGGLVQPGGSLRLSCTASGLSLSSYWMHWVRQAPGKGLEWVGVISAGGNTYYANWAKGRFTISRDTSKNTVYLQMNSLRAEDTAVYFCARGDDGYTNAAYVSNLWGQGTLVTVSS VL: EIVMTQSPSTLSASVGDRVIITCQASQSISSWLSWYQQKPGKAPKLLIYKASTLASGVPSRFSGSGSGAEFTLTISSLQPDDFATYYCQSYFDSTTIAFGQGTKLTVL |
| binds | MYT11039 (antibody, V domains shown, MYT9361 HC variant) VH: EVQLVESGGGLVQPGGSLRLSCTASGLSLSSYWMSWVRQAPGKGLEWVGVIHAGGNTYYANWAKGRFTISRDTSKNTVYLQMNSLRAEDTAVYFCARGDDGYTNAAYVSNLWGQGTLVTVSS VL: EIVMTQSPSTLSASVGDRVIITCQASQSISSWLSWYQQKPGKAPKLLIYKASTLASGVPSRFSGSGSGAEFTLTISSLQPDDFATYYCQSYFDSTTIAFGQGTKLTVL |
